Kd data for one substance are collected here from PMC8795569.

In this test the target is HA-APP (full-length, APP695 spliced isoform) (UniProt P05067). Briefly: ELISA.

Consider “MDGA1 MAM-Fc (recombinant MDGA1 MAM domain fused to Fc) (from UniProt Q8NFP4 751-918) (Fc fusion)”, for which the Kd stood at 41.3 nM.
